According to US9803013B2, “Biological materials and uses thereof” (BioInvent International AB, priority 2005, dated 2017):

How the values were obtained:
[1] = tested on: Raji B lymphoma cells; experiment: scFv apoptosis assay (cross-linked, 24 h, Annexin V/PI); format: cell-based, human
[2] = tested on: Ramos B lymphoma cells; experiment: as above; format: cell-based, human
Experimental: Ramos B lymphoma cells were sequentially incubated with anti-Ramos scFv, anti-His mAb, and anti-mouse polyclonal Ab on ice (with intermittent washing to remove excess unbound antibody), and were incubated in a humidified atmosphere of 5% CO2 at 37° C. for 24 hours. Cells were then harvested and subjected to combined staining with Annexin V-AF488 (AV) and propidium iodide (PI). Cells were scored as viable (AV− PI−, filled circles FIG. 2C), early apoptotic (AV+PI−, open triangles FIG. 2C), or late apoptotic/necrotic (AV+PI+, open diamonds FIG. 2C), based on differential positivity for AV and PI staining (defined by square gates in FIG. 2B). […]
Lipopolysaccharide levels of recombinantly produced scFv fragments were reduced using Detoxigel columns according to manufacturer's instructions (Pierce Biotechnology, Rockford, Ill., USA). Remaining endotoxin levels were quantified by the LAL-amebocyte lysate assay (Cambrex Bioscience, Walkersville, Md., USA). […]
Apoptotic cells were, unless otherwise stated, detected by combined staining with Annexin V Alexa Fluor 488 (AV) and Propidium Iodide (PI) (both from Molecular Probes, Invitrogen) and subsequent flow-cytometric analysis, Cells were defined as viable (AV−/PI−), early apoptotic (AV+/PI−) or late apoptotic/necrotic (AV+/PI+). […]

B1: scFv B11: scFv clone isolated by differential biopanning, later converted to B11 IgG1 (protein)
scFv (part 1 of 2): EVQLLESGGGLVQPGGSLRLSCAASGFTFSNAWMSWVRQAPGKGLEWVAFIWYDGSNKYYADSVKGRFTISRDNSKNTLYLQMNSLRAEDTAVYYCARYSGWYFDYWGQGTLVTVSS
scFv (part 2 of 2): QSVLTQPPSASGTPGQRVTISCTGSSSNIGAGYDVHWYQQLPGTAPKLLIYDNNNRPSGVPDRFSGSKSGTSASLAISGLRSEDEADYYCQSYDSSLSAWLFGGGTKLTVLG
modifications: left off: small tags and cut ends
notes: scFv clone isolated by differential biopanning, later converted to B11 IgG1
[1]
  apoptosis induction by scFv: induced significant apoptosis
[2]
  apoptosis induction by scFv: induced significant apoptosis
